Measurements: US7981423B2, “Rage fusion proteins” (Transtech Pharma, Inc., priority 2004, dated 2011)

Tests used:
[1] = target: T1, S100b (S100) (Homo sapiens, UniProt P04271); experiment: In vitro ligand binding ELISA, immobilized S100b; settings: various dilutions of fusion protein; FIG. 7
T1 sequence (P04271 1-92): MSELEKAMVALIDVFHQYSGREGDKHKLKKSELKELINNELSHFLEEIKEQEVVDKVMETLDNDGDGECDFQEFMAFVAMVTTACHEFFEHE
Experimental: (§1) For example, the RAGE fusion protein may be used in a binding assay to identify potential RAGE ligands. In one example embodiment of such a binding assay, a known RAGE ligand may coated onto a solid substrate (e.g., Maxisorb plates) at a concentration of about 5 micrograms per well, where each well contains a total volume of about 100 microliters (μL). The plates may be incubated at 4° C. overnight to allow the ligand to absorb. Alternatively, shorter incubation periods at higher temperature (e.g., room temperature) may be used. […] The fusion protein bound to the immobilized ligand may be detected in a variety of ways. […] The bound complex may be detected by adding the alkaline phosphatase substrate, para-nitrophenylphosphate (PNPP), and measuring conversion of PNPP to para-nitrophenol (PNP) as an increase in absorbance at 405 nm. […] Binding was detected by the addition of an immunodetection complex containing a monoclonal mouse anti-human IgG1 diluted 1:11,000 to a final assay concentration (FAC) of 21 ng/100 μL, a biotinylated goat anti-mouse IgG diluted 1:500, to a FAC of […], and an avidin-linked alkaline phosphatase. […] Binding of the complex to the immobilized fusion protein was quantified by measuring conversion of PNPP to para-nitrophenol (PNP) which was-measured spectrophotornetrically at 405 nm. […]

[2] = target: T2, amphoterin (Ampho) (Homo sapiens, UniProt P09429); experiment: In vitro ligand binding ELISA, immobilized amphoterin; settings: various dilutions of fusion protein; FIG. 7
T2 sequence (P09429 1-215): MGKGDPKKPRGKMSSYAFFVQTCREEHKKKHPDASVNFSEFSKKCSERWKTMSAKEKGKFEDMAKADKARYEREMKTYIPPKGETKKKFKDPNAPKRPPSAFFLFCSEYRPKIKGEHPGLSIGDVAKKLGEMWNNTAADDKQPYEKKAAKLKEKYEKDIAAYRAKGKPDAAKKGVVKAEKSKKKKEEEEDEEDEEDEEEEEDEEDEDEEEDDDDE
Experimental: as §1

B1: TTP-4000: four domain RAGE fusion protein (SEQ ID NO: 32): human RAGE amino acids 1-251 linked to CH2 and CH3 domains of human IgG (protein)
chain: MAAGTAVGAWALVLSLWGAVVGAQNITARIGEPLVLKCKGAPKKPPQRLEWKLNTGRTEAWKVLSPQGGGPWDSVARVLPNGSLFLPAVGIQDEGIFRCQAMNRNGKETKSNYRVRVYQIPGKPEIVDSASELTAGVPNKVGTCVSEGSYPAGTLSWHLDGKPLVPNEKGVSVKEQTRRHPETGLFTLQSELMVTPARGGDPRPTFSCSFSPGLPRHRALRTAPIQPRVWEPVPLEEVQLVVEPEGGAVAPPSVFLFPPKPKDTLMISRTPEVTCVVVDVSHEDPEVKFNWYVDGVEVHNAKTKPREEQYNSTYRVVSVLTVLHQDWLNGKEYKCKVSNKALPAPIEKTISKAKGQPREPQVYTLPPSRDELTKNQVSLTCLVKGFYPSDIAVEWESNGQPENNYKTTPPVLDSDGSFFLYSKLTVDKSRWQQGNVFSCSVMHEALHNHYTQKSLSLSPGK
[1]
  binding to immobilized S100b (absorbance at 405 nm): specifically interact
[2]
  binding to immobilized amphoterin (absorbance at 405 nm): specifically interact
